Twelve molecules from patent US20130064823A1 (Novartis, published 2013) can be followed below.

Positions count from the first letter of the chain named.

The labels stand for the following.
T1: LRP6-Fc (R&D Systems, catalog No: 1505-LR) (human, UniProt O75581 20-1370)
T1 construct: also called 360 KD homodimer antigen LRP6-Fc
T1 sequence (looked up): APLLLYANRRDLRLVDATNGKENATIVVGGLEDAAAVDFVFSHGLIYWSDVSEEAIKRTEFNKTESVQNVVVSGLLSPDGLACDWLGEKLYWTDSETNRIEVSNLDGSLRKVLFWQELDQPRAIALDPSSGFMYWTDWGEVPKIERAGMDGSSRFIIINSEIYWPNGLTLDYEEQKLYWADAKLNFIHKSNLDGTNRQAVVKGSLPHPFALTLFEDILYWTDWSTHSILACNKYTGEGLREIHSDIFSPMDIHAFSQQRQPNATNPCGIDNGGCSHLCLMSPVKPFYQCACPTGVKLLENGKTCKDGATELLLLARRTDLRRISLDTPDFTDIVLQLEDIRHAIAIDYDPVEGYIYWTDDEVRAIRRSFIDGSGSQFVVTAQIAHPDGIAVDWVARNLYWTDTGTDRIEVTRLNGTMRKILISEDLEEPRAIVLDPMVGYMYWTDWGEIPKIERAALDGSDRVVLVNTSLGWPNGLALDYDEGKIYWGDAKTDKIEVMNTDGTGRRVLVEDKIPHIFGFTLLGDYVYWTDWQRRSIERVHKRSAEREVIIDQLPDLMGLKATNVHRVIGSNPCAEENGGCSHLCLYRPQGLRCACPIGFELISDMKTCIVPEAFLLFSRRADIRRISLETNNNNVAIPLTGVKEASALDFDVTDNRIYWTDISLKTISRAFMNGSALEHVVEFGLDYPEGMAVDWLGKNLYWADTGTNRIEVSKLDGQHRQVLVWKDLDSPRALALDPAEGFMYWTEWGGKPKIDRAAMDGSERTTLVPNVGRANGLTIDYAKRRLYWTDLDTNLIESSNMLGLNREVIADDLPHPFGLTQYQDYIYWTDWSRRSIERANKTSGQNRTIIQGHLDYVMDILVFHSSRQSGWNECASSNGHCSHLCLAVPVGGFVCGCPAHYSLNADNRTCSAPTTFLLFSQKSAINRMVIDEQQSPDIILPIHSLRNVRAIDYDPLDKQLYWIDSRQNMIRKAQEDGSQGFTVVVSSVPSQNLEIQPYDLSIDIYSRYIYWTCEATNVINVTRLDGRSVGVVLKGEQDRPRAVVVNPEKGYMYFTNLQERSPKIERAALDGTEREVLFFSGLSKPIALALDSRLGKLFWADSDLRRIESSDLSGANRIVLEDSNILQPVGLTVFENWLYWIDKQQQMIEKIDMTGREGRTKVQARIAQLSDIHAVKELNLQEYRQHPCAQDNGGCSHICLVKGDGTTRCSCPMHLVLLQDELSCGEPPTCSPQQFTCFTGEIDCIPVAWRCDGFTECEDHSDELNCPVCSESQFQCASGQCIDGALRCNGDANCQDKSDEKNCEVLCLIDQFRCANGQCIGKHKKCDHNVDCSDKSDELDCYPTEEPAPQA

B1: scFv08168-D7 (scFv, V domains shown)
VH: QVQLVESGGGLVQPGGSLRLSCAASGFTFSDYVMNWVRQAPGKGLEWVSGISWSGVNTHYADSVKGRFTISRDNSKNTLYLQMNSLRAEDTAVYYCARLGATANNIRYKFMDVWGQGTLVTVSS
VL: DIELTQPPSVSVAPGQTARITCSGDSLRNKVYWYQQKPGQAPVLVIYKNNRPSGIPERFSGSNSGNTATLTISGTQAEDEADYYCQSYDGQKSLVFGGGTKLTVL
B2: scFv08168-D9 (scFv, V domains shown)
VH: B1 VH
VL: B1 VL with T21S, G61V
B3: scFv08168-D6 (scFv, V domains shown)
VH: B1 VH with V48I
VL: B1 VL with T21S
B4: MOR08545 Fab (Fab, V domains shown)
VH: QVQLVESGGGLVQPGGSLRLSCAASGFTFSVNGMHWVRQAPGKGLEWVSVIDGMGHTYYADSVKGRFTISRDNSKNTLYLQMNSLRAEDTAVYYCARYDYIKYGAFDPWGQGTLVTVSS
VL: DIELTQPPSVSVAPGQTARISCSGDNIGSKYVHWYQQKPGQAPVLVIYGDSNRPSGIPERFSGSNSGNTATLTISGTQAEDEADYYCTRTSTPISGVFGGGTKLTVLG
notes: also called Propeller 1 anti-LRP6 Fab MOR08545
B5: MOR08473 Fab (Fab, V domains shown)
VH: QVQLVESGGGLVQPGGSLRLSCAASGFTFSSYGMSWVRQAPGKGLEWVSNISNDGHYTYYADSVKGRFTISRDNSKNTLYLQMNSLRAEDTAVYYCARFQASYLDIMDYWGQGTLVTVSS
VL: DIELTQPPSVSVAPGQSITISCSGDNIGSKYVHWYQQKPGQAPVLVIYNDSNRPSGIPERFSGSNSGNTATLTISGTQAEDEADYYCQAWGDNGTRVFGGGTKLTVLG
notes: also called Propeller 3 anti-LRP6 Fab MOR08473
B6: MOR08168 Fab (Fab, V domains shown)
VH: B1 VH with M34I
VL: B1 VL with T21S
notes: HuCAL Fab expressed in E. coli; also called Propeller 1 anti-LRP6 Fab MOR08168
B7: MOR06706 Fab (Fab, V domains shown)
VH: QVQLVESGGGLVQPGGSLRLSCAASGFTFSDYAIHWVRQAPGKGLEWVSGISYSGSSTHYADSVKGRFTISRDNSKNTLYLQMNSLRAEDTAVYYCARGSHGNIMAKRYFDFWGQGTLVTVSS
VL: DIELTQPPSVSVAPGQTARISCSGDNIRKKYVYWYQQKPGQAPVLVIYEDSKRPSGIPERFSGSNSGNTATLTISGTQAEDEADYYCSTADSGINNGVFGGGTKLTVL
notes: also called Propeller 1 anti-LRP6 Fab MOR06706
B8: MOR08193 Fab (Fab, V domains shown)
VH: QVQLKESGPALVKPTQTLTLTCTFSGFSLSNRGGGVGWIRQPPGKALEWLAWIDWDDDKSYSTSLKTRLTISKDTSKNQVVLTMTNMDPVDTATYYCARMHLPLVFDSWGQGTLVTVSS
VL: DIVLTQSPATLSLSPGERATLSCRASQFIGSRYLAWYQQKPGQAPRLLIYGASNRATGVPARFSGSGSGTDFTLTISSLEPEDFAVYYCQQYWSIPITFGQGTKVEIKR
notes: also called Propeller 3 anti-LRP6 Fab MOR08193
B9: scFv08168-D8 (scFv, V domains shown)
VH: B1 VH
VL: B1 VL with T21S, V45L
B10: scFv08168-D2 (scFv)
chain: QVQLVESGGGLVQPGGSLRLSCAASGFTFSDYVFNWVRQAPGKGLEWVAGISWSGVNTHYADSVKGRFTISRDNSKNTLYLQMNSLRAEDTAVYYCARLGATANNIRYKFMDVWGQGTLVTVSSGGGGSGGGGSGGGGSDIELTQPPSVSVAPGQTARISCSGDSLRNKVYWYQQKPGQAPVLVIYKNNRPSGIPERFSGSNSGNTATLTISGTQAEDEADYYCQSYDGQKSLVFGGGTKLTVL
B11: scFv08168-D5 (scFv)
chain: B10 chain with F34M, A49S, H59Y
B12: scFv08168-D4 (scFv)
chain: B10 chain with F34M, A49S, G50S

The target of one assay is human LRP6 (human, UniProt O75581 20-1613). In words: cell-based or functional assay.
B1: the “IC50 by STF assay for Wnt1 inhibition” value is 4.81 nM.

For B2, the “IC50 by STF assay for Wnt1 inhibition” value is 11.1 nM.

Consider B3, for which the “IC50 by STF assay for Wnt1 inhibition” value amounted to 0.74 nM.

The target in the next assay is cynomolgus LRP6 (cynomolgus, UniProt A0A2K5VCG3 20-1602). In words: FACS on HEK293T/17 cells transiently transfected with cynomolgus LRP6 (Example 3); Fab or IgG format not stated on the sheet.
Chain of cynomolgus LRP6 (A0A2K5VCG3 entry or part of it): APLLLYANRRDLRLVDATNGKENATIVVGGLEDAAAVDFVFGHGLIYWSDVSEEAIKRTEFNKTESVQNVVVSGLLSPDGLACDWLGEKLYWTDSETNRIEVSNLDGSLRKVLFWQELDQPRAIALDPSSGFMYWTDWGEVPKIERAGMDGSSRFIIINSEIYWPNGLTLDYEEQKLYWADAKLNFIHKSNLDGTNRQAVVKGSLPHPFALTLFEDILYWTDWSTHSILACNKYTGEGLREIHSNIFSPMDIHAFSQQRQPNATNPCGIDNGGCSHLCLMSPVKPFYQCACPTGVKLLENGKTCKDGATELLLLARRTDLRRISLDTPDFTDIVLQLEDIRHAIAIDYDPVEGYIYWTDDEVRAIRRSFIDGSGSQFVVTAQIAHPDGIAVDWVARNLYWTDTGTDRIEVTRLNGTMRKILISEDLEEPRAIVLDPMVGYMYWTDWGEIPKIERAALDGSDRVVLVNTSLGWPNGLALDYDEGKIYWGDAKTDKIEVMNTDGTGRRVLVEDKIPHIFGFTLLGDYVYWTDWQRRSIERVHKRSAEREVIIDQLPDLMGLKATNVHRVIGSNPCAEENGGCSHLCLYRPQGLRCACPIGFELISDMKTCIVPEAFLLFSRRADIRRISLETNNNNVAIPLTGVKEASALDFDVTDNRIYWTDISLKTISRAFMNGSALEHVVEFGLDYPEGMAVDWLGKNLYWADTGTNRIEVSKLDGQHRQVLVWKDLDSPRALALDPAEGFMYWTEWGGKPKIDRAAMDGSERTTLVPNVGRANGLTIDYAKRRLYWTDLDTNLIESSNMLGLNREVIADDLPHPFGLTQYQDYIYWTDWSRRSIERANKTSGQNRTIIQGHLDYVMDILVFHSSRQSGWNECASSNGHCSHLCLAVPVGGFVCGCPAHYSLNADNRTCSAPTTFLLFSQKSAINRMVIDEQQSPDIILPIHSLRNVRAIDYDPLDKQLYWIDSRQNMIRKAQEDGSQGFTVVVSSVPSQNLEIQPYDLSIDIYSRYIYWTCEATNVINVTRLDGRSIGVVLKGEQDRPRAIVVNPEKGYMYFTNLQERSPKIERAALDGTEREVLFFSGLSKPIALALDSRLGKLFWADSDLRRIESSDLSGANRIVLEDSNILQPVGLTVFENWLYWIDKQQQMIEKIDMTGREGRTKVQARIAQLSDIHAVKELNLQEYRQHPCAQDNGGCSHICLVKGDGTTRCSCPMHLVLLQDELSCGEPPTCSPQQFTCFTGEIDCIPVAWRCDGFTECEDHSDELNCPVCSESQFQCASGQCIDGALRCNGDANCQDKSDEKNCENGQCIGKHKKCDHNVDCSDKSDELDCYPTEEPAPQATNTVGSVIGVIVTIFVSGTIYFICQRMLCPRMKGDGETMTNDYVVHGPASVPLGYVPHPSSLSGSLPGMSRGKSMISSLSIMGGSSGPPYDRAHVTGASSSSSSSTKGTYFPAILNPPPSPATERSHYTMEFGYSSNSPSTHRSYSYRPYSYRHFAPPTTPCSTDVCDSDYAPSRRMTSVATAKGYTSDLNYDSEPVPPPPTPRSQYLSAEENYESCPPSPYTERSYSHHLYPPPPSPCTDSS
For the molecule B4, the EC50 worked out at 0.3 nM.

Take B5: it took 0.52 nM to reach a half-maximal effect (EC50).

As for B6, the midpoint of the response, the EC50, lay at 0.88 nM.

Molecule B7 returned an EC50 of 0.46 nM.

The molecule B8 had an EC50 of 0.2 nM.

A further assay has as its target T1, LRP6-Fc (R&D Systems, catalog No: …). Kind of assay: ELISA on plates coated with LRP6-Fc. As for the experimental part: Binding EC₅₀ of scFvs against LRP6 protein was measured by ELISA. Maxisorp plate was coated with LRP6-Fc (R&D Sysytems, catalog No: 1505-LR) at 3 μg/ml at 4° C. overnight. The plate was blocked with 50 μl of 2% BSA for one hour, and washed five times with the wash solution. The samples were diluted with 1% BSA accordingly. The plate was incubated at RT for 1 h, and washed for 3 times. Detection was done by adding 50 μl pentallis-HRP (Qiagen Mat. No. 1014992) at 1:2000 dilution in 1% BSA, incubated at RT for 1 h, and washed 3 times. 50 μl of substrate reagent A plus B (R&D systems) was added, then incubated for 5-20 min depending on the color. The reaction was stopped by adding 25 μl of the stop solution, followed by plate reading at 450 nm.
Affinity analysis ELISA EC₅₀ was carried out for both scFv08168 and scFv06475 wild type and variants.
(ELISA stands for enzyme-linked immunosorbent assay.)
With B1, the 50% effective concentration (EC50) came out at 1.15 nM.

Take B2: the EC50 turned out to be 1.26 nM.

B9 came in with an EC50 of 0.91 nM.

For the molecule B3, the half-maximal effective concentration (EC50) worked out at 1.24 nM.

B10: the midpoint of the response, the EC50, lay at 1.68 nM.

For the molecule B11, the EC50 turned out to be 1.22 nM.

In turn, B12 displayed an EC50 of 1.47 nM.

Usually EC50 stands for the midpoint of the concentration-response curve. Read a high EC50 as a less potent agent.
